Results reported in the supplement of paper PMC9112550, “Optimization of the antimicrobial peptide Bac7 by deep mutational scanning” (BMC Biology, 2022).

System: Escherichia coli TOP10
Assay: shrunken log2 fold change of peptide-encoding DNA abundance (4.5 h post-induction vs induction); higher = less antimicrobial activity (less host growth inhibition)
Conditions: time post-induction: 4.5 h; library: site-saturation at positions 5, 18, 19, 20
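Further: peptides expressed intracellularly from a pBAD plasmid library in pooled LB shake-flask culture, induced with 0.3% L-arabinose, DNA abundance read by NGS, three biological replicates, DESeq2 with apeglm shrinkage.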

Sequence	shrunken log2 fold change
RRIRGRPPRLPRPRPRPDDIPRP	0.027
RRIRERPPRLPRPRPRPDWFPRP	-0.00866
RRIRGRPPRLPRPRPRPWMHPRP	-0.00858
RRIRGRPPRLPRPRPRPVACPRP	0.72
RRIRDRPPRLPRPRPRPDNWPRP	-0.232
RRIRKRPPRLPRPRPRPHMVPRP	-0.33
RRIRFRPPRLPRPRPRPEKEPRP	-0.0104
RRIRTRPPRLPRPRPRPLMLPRP	-0.297
RRIRKRPPRLPRPRPRPAQFPRP	0.258
RRIRYRPPRLPRPRPRPVLAPRP	-0.037
RRIRFRPPRLPRPRPRPHFAPRP	0.0808
RRIRMRPPRLPRPRPRPIVAPRP	0.156
RRIRLRPPRLPRPRPRPECKPRP	0.0726
RRIRKRPPRLPRPRPRPAGMPRP	0.042
RRIRRRPPRLPRPRPRPKQFPRP	-0.00581
RRIRRRPPRLPRPRPRPPKFPRP	0.298
RRIRRRPPRLPRPRPRPDYMPRP	-0.384
RRIRQRPPRLPRPRPRPFMDPRP	0.0499
RRIRDRPPRLPRPRPRPSEWPRP	-0.0637
RRIRNRPPRLPRPRPRPHYVPRP	-0.121
RRIRRRPPRLPRPRPRPDGKPRP	0.0432
RRIRCRPPRLPRPRPRPDSFPRP	0.211
RRIRQRPPRLPRPRPRPGIAPRP	0.719
RRIRYRPPRLPRPRPRPSISPRP	-0.601
RRIRFRPPRLPRPRPRPECNPRP	0.0687

Sequence	shrunken log2 fold change
RRIRGRPPRLPRPRPRPYHLPRP	-1.27
RRIRGRPPRLPRPRPRPMFKPRP	0.0694
RRIRFRPPRLPRPRPRPNHEPRP	-0.56
RRIRPRPPRLPRPRPRPDSPPRP	0.0152
RRIRHRPPRLPRPRPRPSDSPRP	-0.0454
RRIRARPPRLPRPRPRPHFIPRP	0.179
RRIRPRPPRLPRPRPRPTRDPRP	0.481
RRIRVRPPRLPRPRPRPTEDPRP	-0.113
RRIRHRPPRLPRPRPRPVRRPRP	0.241
RRIRTRPPRLPRPRPRPSIWPRP	0.112
RRIRRRPPRLPRPRPRPHCSPRP	-0.0453
RRIRWRPPRLPRPRPRPPPCPRP	0.638
RRIRHRPPRLPRPRPRPNSKPRP	-0.737
RRIRQRPPRLPRPRPRPLRHPRP	0.323
RRIRCRPPRLPRPRPRPTCCPRP	-0.354
RRIRPRPPRLPRPRPRPPSDPRP	0.128
RRIRARPPRLPRPRPRPRRDPRP	0.656
RRIRKRPPRLPRPRPRPFWLPRP	0.341
RRIRVRPPRLPRPRPRPQNPPRP	-0.396
RRIRWRPPRLPRPRPRPSADPRP	0.115
RRIRSRPPRLPRPRPRPEVIPRP	0.18
RRIRGRPPRLPRPRPRPGVGPRP	1.11
RRIRMRPPRLPRPRPRPIAYPRP	0.0419
RRIRVRPPRLPRPRPRPDEAPRP	-0.0574
RRIRIRPPRLPRPRPRPPKMPRP	-0.0476

Sequence	shrunken log2 fold change
RRIRDRPPRLPRPRPRPHIQPRP	-0.53
RRIRHRPPRLPRPRPRPATNPRP	0.607
RRIRTRPPRLPRPRPRPGHAPRP	0.161
RRIRRRPPRLPRPRPRPESRPRP	0.0681
RRIRGRPPRLPRPRPRPYYTPRP	1.19
RRIRVRPPRLPRPRPRPIYCPRP	-0.113
RRIRLRPPRLPRPRPRPSSAPRP	-0.0182
RRIRIRPPRLPRPRPRPYISPRP	-0.0173
RRIRDRPPRLPRPRPRPVRTPRP	-0.176
RRIRARPPRLPRPRPRPRPSPRP	0.622
RRIRRRPPRLPRPRPRPYAHPRP	0.082
RRIRMRPPRLPRPRPRPSQNPRP	0.407
RRIRRRPPRLPRPRPRPYSNPRP	-0.414
RRIRHRPPRLPRPRPRPVSIPRP	-0.00904
RRIRRRPPRLPRPRPRPLHIPRP	0.212
RRIRKRPPRLPRPRPRPMSMPRP	0.0472
RRIRVRPPRLPRPRPRPFIMPRP	-0.084
RRIRRRPPRLPRPRPRPNGHPRP	0.193
RRIRSRPPRLPRPRPRPSYDPRP	-0.609
RRIRKRPPRLPRPRPRPRPQPRP	0.865
RRIRHRPPRLPRPRPRPMWTPRP	-0.126
RRIRFRPPRLPRPRPRPGPGPRP	0.676
RRIRLRPPRLPRPRPRPIMPPRP	-0.459
RRIRNRPPRLPRPRPRPESRPRP	0.114
RRIRARPPRLPRPRPRPLTEPRP	0.608

Sequence	shrunken log2 fold change
RRIRMRPPRLPRPRPRPGQGPRP	0.269
RRIRNRPPRLPRPRPRPHKGPRP	-0.014
RRIRPRPPRLPRPRPRPCVDPRP	-0.149
RRIRSRPPRLPRPRPRPMVGPRP	0.158
RRIRMRPPRLPRPRPRPEVGPRP	2.56
RRIRTRPPRLPRPRPRPPFAPRP	0.195
RRIRIRPPRLPRPRPRPMKMPRP	-0.127
RRIRTRPPRLPRPRPRPWCCPRP	-0.227
RRIRFRPPRLPRPRPRPKAGPRP	0.307
RRIRARPPRLPRPRPRPKQVPRP	0.0289
RRIRVRPPRLPRPRPRPWGLPRP	-0.159
RRIRTRPPRLPRPRPRPKPVPRP	0.217
RRIRTRPPRLPRPRPRPGGDPRP	0.46
RRIRKRPPRLPRPRPRPKEMPRP	0.682
RRIRKRPPRLPRPRPRPHYCPRP	-0.00783
RRIRYRPPRLPRPRPRPFNSPRP	-0.169
RRIRLRPPRLPRPRPRPETVPRP	0.0594
RRIRLRPPRLPRPRPRPNRHPRP	-0.312
RRIRKRPPRLPRPRPRPYMWPRP	-0.0774
RRIRLRPPRLPRPRPRPDYDPRP	-0.496
RRIRFRPPRLPRPRPRPEKQPRP	-0.0262
RRIRERPPRLPRPRPRPLYMPRP	-0.748
RRIRARPPRLPRPRPRPQEIPRP	0.107
RRIRWRPPRLPRPRPRPHGGPRP	-0.0606
RRIRFRPPRLPRPRPRPFAHPRP	-0.0794

Sequence	shrunken log2 fold change
RRIRPRPPRLPRPRPRPQVPPRP	0.0319
RRIRPRPPRLPRPRPRPPYCPRP	-0.12
RRIRKRPPRLPRPRPRPYDEPRP	-0.293
RRIRFRPPRLPRPRPRPMSFPRP	-0.193
RRIRRRPPRLPRPRPRPAPAPRP	1.1
RRIRIRPPRLPRPRPRPYHHPRP	-0.0849
RRIRYRPPRLPRPRPRPQWVPRP	-0.0081
RRIRGRPPRLPRPRPRPQDEPRP	0.111
RRIRNRPPRLPRPRPRPNYGPRP	-0.0781
RRIRPRPPRLPRPRPRPLELPRP	0.0125
RRIRCRPPRLPRPRPRPRGYPRP	0.471
RRIRCRPPRLPRPRPRPACVPRP	0.211
RRIRNRPPRLPRPRPRPSSGPRP	-0.649
RRIRCRPPRLPRPRPRPFHRPRP	0.00717
RRIRERPPRLPRPRPRPRCWPRP	0.014
RRIRFRPPRLPRPRPRPFKNPRP	-0.46
RRIRHRPPRLPRPRPRPDSPPRP	0.0316
RRIRFRPPRLPRPRPRPQNIPRP	-0.411
RRIRLRPPRLPRPRPRPNPSPRP	0.104
RRIRLRPPRLPRPRPRPNCAPRP	0.415
RRIRLRPPRLPRPRPRPILKPRP	0.0777
RRIRPRPPRLPRPRPRPPRKPRP	0.79
RRIRCRPPRLPRPRPRPVRSPRP	0.549
RRIRIRPPRLPRPRPRPCVLPRP	-0.145
RRIRERPPRLPRPRPRPFKRPRP	0.0596

Sequence	shrunken log2 fold change
RRIRKRPPRLPRPRPRPMSWPRP	5.25
RRIRRRPPRLPRPRPRPFWGPRP	0.463
RRIRFRPPRLPRPRPRPNFHPRP	-0.218
RRIRMRPPRLPRPRPRPQPQPRP	0.717
RRIRMRPPRLPRPRPRPKIIPRP	0.102
RRIRYRPPRLPRPRPRPRCHPRP	-0.512
RRIRKRPPRLPRPRPRPLTFPRP	0.299
RRIRKRPPRLPRPRPRPHFIPRP	0.136
RRIRNRPPRLPRPRPRPPKHPRP	0.157
RRIRIRPPRLPRPRPRPKEQPRP	0.0307
RRIRMRPPRLPRPRPRPLVKPRP	-0.174
RRIRQRPPRLPRPRPRPRKHPRP	0.165
RRIRHRPPRLPRPRPRPETLPRP	-0.18
RRIRFRPPRLPRPRPRPIGEPRP	0.0336
RRIRVRPPRLPRPRPRPFFKPRP	0.0447
RRIRCRPPRLPRPRPRPGFSPRP	-0.257
RRIRCRPPRLPRPRPRPSPIPRP	-0.32
RRIRWRPPRLPRPRPRPDHCPRP	-0.00992
RRIRLRPPRLPRPRPRPTRGPRP	0.298
RRIRIRPPRLPRPRPRPGHIPRP	-0.327
RRIRARPPRLPRPRPRPTQVPRP	0.224
RRIRPRPPRLPRPRPRPEGYPRP	0.128
RRIRVRPPRLPRPRPRPQYCPRP	-0.095
RRIRDRPPRLPRPRPRPNDEPRP	0.418
RRIRDRPPRLPRPRPRPLISPRP	0.116
